Test results from the Human Domainome abundance scans (Beltran et al. 2025).

B1: PDZ and LIM domain protein 2, residues 284 to 339; numbered along this chain, Q96JY6 (parent)
chain: HTCEKCSTSIANQAVRIQEGRYRHPGCYTCADCGLNLKMRGHFWVGDELYCEKHAR
B2: Chromodomain-helicase-DNA-binding protein 4, residues 623 to 675; numbered along this chain, Q14839 (parent)
chain: MIHRILNHSVDKKGHVHYLIKWRDLPYDQASWESEDVEIQDYDLFKQSYWNHR

Variants of: B1
Assay: abundance fitness (aPCA) (normalised: wild type 0, dead -1); higher = more abundant; growth selection in yeast, the domain comes from the species named
Details: Homo sapiens

Abundance fitness: each site, then its substitutions
S7: F -0.137, L -0.09, V -0.16, W -0.641, H -0.212, T 0.008, Y -0.614, G 0.018, M -0.083, R -0.216, C 0.023, P -0.613, I -0.047, D -0.55, A 0.085, N -0.294, E -0.878
E4: Y 0.056, I -0.331, W -0.276, L -0.473, K -0.362, C 0.033, F 0.075, Q -0.16, P -0.592, A -0.245, S 0.014, G -0.028, N 0.14, R -0.624, M 0.093, H 0.069, D -0.063
H1: D -0.317, A -0.24, G -0.247, M 0.268, Q -0.669, R -0.222
S9: P -0.376, M -0.62, L -0.767, N -0.058, W -1.01, C -0.365, V -0.485, D 0.277, Q -0.079, Y -1.02, T -0.271, H -0.539, G -0.08, I -0.764, F -1.09, A 0.199, R -0.34
C6: R -0.266, I -0.135, G -0.437, L -0.597, Q -0.199, K -0.264, Y -0.743, H -0.535, T -0.48, D -0.15, P -0.336, A -0.408, E -0.382, V -0.282, F -0.667, W -0.872, N -0.508, M -0.523
T2: C -0.323, Q -0.339, I 0.208, A -0.578, M -0.51, N 0.177, S -0.559, P -0.66, G -0.899, E -0.597, D -0.305, V -0.685, L -0.834, Y -0.31, H 0.144, R -0.389, K 0.003
K5: N 0.269, D 0.181, P -0.267, S -0.108, A 0.157, Q 0.165, I 0.463, T 0.104, E 0.038, C -0.068, F -0.467, L 0.049, R 0.261, M -0.05, V 0.055, W -0.553, Y 0.508, G -0.036
T8: Q 0.056, L 0.004, E 0.387, V 0.189, M -0.099, D 0.232, I -0.361, K 0.255, A 0.308, F -0.111, Y 0.119, N 0.221, G 0.153, W -0.068, S 0.139, H 0.173
C3: S -0.693, P -0.968, D -1.02, R -0.847, Q -0.82, A -1.1, L -0.978, G -1.17, M -0.856, Y -0.436, K -0.45, F -0.483, H -0.399, T -0.586, E -0.986, V -0.983, W -1.05, I -0.471
I10: H -0.735, D -0.041, E 0.006, C -0.062, G -0.312

Variants of: B2
Assay: as above
Details: Homo sapiens

Abundance fitness: each site, then its substitutions
L44: Y -0.089, W -0.302, Q -0.11, G -0.342, V 0.074, M 0.085, E -0.211, P -0.91, A -0.014, N -0.131, F -0.201, H -0.034, S -0.015, K 0.111, R 0.058, D -0.16, C -0.293
R53: Y 0.011
